{
  "source": "paper PMC5592240",
  "about": "“Succinyl-CoA:Mesaconate CoA-Transferase and Mesaconyl-CoA Hydratase, Enzymes of the Methylaspartate Cycle in Haloarcula hispanica” (Frontiers in Microbiology, 2017)",
  "proteins": {"B1": {"name": "succinyl-CoA:mesaconate CoA-transferase from Haloarcula hispanica (enzyme, UniProt G0HQ31 1-396, looked up)", "chain": "MGALDDLRVLDLTQVLAGPYCTMLLADMGADVVKVERPGGDLIRSNPPFVSDGDEEAYGGYFQSVNRGKRSLELDLGTDEDREAFLSLVERADVVVENFKAGTMEKFDCGYETLREHNPDLIYSSIRGFGDPRTGETHRQGQPSFDLIAQALGGVMEITGQSDGPPTKVGPGVGDLFTAVLNAVGILAAVHHRERTGEGQYVDTAMYDSMVSLCERTVYQYSCDGESPTRQGNSHPTLFPYDSFEAADGHVVIAAFADGHWETLCEAMERPDLAADYPDAGSRIANRESLRREIADWTATIDSETLLDLLEGRVPAAPVQNTADIFDDPHIHDREMLTDVDQPGADEQITIAGSPIKMTETMPSPGGRAPLLDEHRAELLDEAGVGTGTNRVESDD", "notes": "succinyl-CoA:mesaconate CoA-transferase (Mct, Hah_1336) of Haloarcula hispanica; the 1.19-kb mct gene (396 amino acids, predicted molecular mass 43 kDa) was cloned into pTA963; No removal of the tag is described; also called Mct; Hah_1336; source: Haloferax volcanii H1209 (pTA963), purified (Ni-NTA, gel filtration); not shown: His6, N-terminal, kept"}, "B2": {"name": "mesaconyl-CoA hydratase from Haloarcula hispanica (enzyme, UniProt G0HQ35 1-358, looked up)", "chain": "MTDWTDPDALDLSDGETFDSLLDRADTREKGHFFEFFAEGDELAHDPGLRLSHHGSEQWMGQTLNHDPAYWRADTAQERGFEERPVHPDYLLACVMGITVEDLSEKGGYFLGRDDVEFHQPATAGTPLSVTSTVVDTRTSSSRPKYGIVTWETEGRDRETGETLVSYRRTNMIPRREPAATDGGAVGEQDEGGPAMPDTLLSPDGERFGDFQAALDTAREENAAVAYRHERGRTMDDQLVAGLPLSTLNTARQHHNRDEMADSPSGDIVAYGDVTRSIALAHARSDEATYREQRFADERFHDFVTLGDTVYGFTRVLDCDPDAGPERAGAVTFEHVAFNQEQTPVYSGRRTAHIQRHQ", "notes": "mesaconyl-CoA hydratase (Mch, Hah_1340) of Haloarcula hispanica; the 1.07-kb mch gene (358 amino acids, predicted molecular mass 40 kDa) was cloned into pTA963; No removal of the tag is described; also called Mch; Hah_1340; source: Haloferax volcanii H1209 (pTA963), purified (Ni-NTA, gel filtration); not shown: His6, N-terminal, kept"}},
  "key": {"[1]": {"substrate": "C/C(=C\\C(=O)O)C(=O)O", "experiment": "UPLC of mesaconyl-CoA formation", "assay_type": "biochemical, Haloarcula hispanica", "details": "CoA acceptor, 1 mM succinyl-CoA, 100 mM Tris/HCl pH 7.8, 3 M KCl, 5 mM MgCl2, 37°C, apparent", "source_text": "(§1) UPLC of mesaconyl-CoA formation on succinyl-CoA:mesaconate CoA-transferase (Mct, Hah_1336)"}, "[2]": {"substrate": "CC(C)(COP(=O)(O)OP(=O)(O)OC[C@H]1O[C@@H](n2cnc3c(N)ncnc32)[C@H](O)[C@@H]1OP(=O)(O)O)[C@@H](O)C(=O)NCCC(=O)NCCSC(=O)CCC(=O)O", "experiment": "UPLC of mesaconyl-CoA formation", "assay_type": "biochemical, Haloarcula hispanica", "details": "CoA donor, 10 mM mesaconate, 100 mM Tris/HCl pH 7.8, 3 M KCl, 5 mM MgCl2, 37°C, apparent", "source_text": "as §1"}, "[3]": {"target": "the molecule itself", "experiment": "SEC; analytical gel filtration, 24-ml Superdex 200 Increase 10/300 GL, 50 mM Tris/HCl pH 8.0 with 2 M KCl, 0.75 ml/min; calibrated with alcohol dehydrogenase (150 kDa), bovine serum albumin (66 kDa), carbonic anhydrase (29 kDa), cytochrome c (12.4 kDa); native mass against the monomer's mass"}, "[4]": {"substrate": "CC(CC(=O)O)C(=O)O", "experiment": "UPLC of CoA-ester formation", "assay_type": "biochemical, Haloarcula hispanica", "details": "CoA acceptor, 1 mM succinyl-CoA, 100 mM Tris/HCl pH 7.8, 3 M KCl, 5 mM MgCl2, 37°C, apparent", "source_text": "(§2) UPLC of CoA-ester formation on succinyl-CoA:mesaconate CoA-transferase (Mct, Hah_1336)"}, "[5]": {"substrate": "C=CC(=O)O", "experiment": "UPLC of CoA-ester formation", "assay_type": "biochemical, Haloarcula hispanica", "details": "CoA acceptor, 1 mM succinyl-CoA, 100 mM Tris/HCl pH 7.8, 3 M KCl, 5 mM MgCl2, 37°C, apparent", "source_text": "as §2"}, "[6]": {"substrate": "O=C(O)CCCC(=O)O", "experiment": "UPLC of CoA-ester formation", "assay_type": "biochemical, Haloarcula hispanica", "details": "CoA acceptor, 1 mM succinyl-CoA, 100 mM Tris/HCl pH 7.8, 3 M KCl, 5 mM MgCl2, 37°C, apparent", "source_text": "as §2"}, "[7]": {"substrate": "C[C@H](C(=O)SCCNC(=O)CCNC(=O)[C@H](O)C(C)(C)COP(=O)(O)OP(=O)(O)OC[C@H]1O[C@@H](n2cnc3c(N)ncnc32)[C@H](O)[C@@H]1OP(=O)(O)O)[C@@H](O)C(=O)O", "experiment": "UPLC of CoA esters (dehydration to mesaconyl-C1-CoA)", "assay_type": "biochemical, Haloarcula hispanica", "details": "100 mM Tris/HCl pH 7.8, 3 M KCl, 5 mM MgCl2, 37°C, reverse direction (dehydration), apparent", "source_text": "UPLC of CoA esters (dehydration to mesaconyl-C1-CoA) on mesaconyl-CoA hydratase (Mch, Hah_1340)"}, "[8]": {"substrate": "C/C(=C\\C(=O)O)C(=O)SCCNC(=O)CCNC(=O)[C@H](O)C(C)(C)COP(=O)(O)OP(=O)(O)OC[C@H]1O[C@@H](n2cnc3c(N)ncnc32)[C@H](O)[C@@H]1OP(=O)(O)O", "experiment": "UPLC of CoA esters (hydration to beta-methylmalyl-CoA)", "assay_type": "biochemical, Haloarcula hispanica", "details": "100 mM Tris/HCl pH 7.8, 3 M KCl, 5 mM MgCl2, 37°C, forward direction (hydration), apparent", "source_text": "UPLC of CoA esters (hydration to beta-methylmalyl-CoA) on mesaconyl-CoA hydratase (Mch, Hah_1340)"}, "[9]": {"substrate": "C/C(=C\\C(=O)SCCNC(=O)CCNC(=O)[C@H](O)C(C)(C)COP(=O)(O)OP(=O)(O)OC[C@H]1O[C@@H](n2cnc3c(N)ncnc32)[C@H](O)[C@@H]1OP(=O)(O)O)C(=O)O", "experiment": "UPLC of CoA esters (hydration to (S)-citramalyl-CoA)", "assay_type": "biochemical, Haloarcula hispanica", "details": "100 mM Tris/HCl pH 7.8, 3 M KCl, 5 mM MgCl2, 37°C, forward direction (hydration), apparent", "source_text": "UPLC of CoA esters (hydration to (S)-citramalyl-CoA) on mesaconyl-CoA hydratase (Mch, Hah_1340)"}, "[10]": {"substrate": "CC(C)(COP(=O)(O)OP(=O)(O)OC[C@H]1O[C@@H](n2cnc3c(N)ncnc32)[C@H](O)[C@@H]1OP(=O)(O)O)[C@@H](O)C(=O)NCCC(=O)NCCSC(=O)C[C@](C)(O)C(=O)O", "experiment": "UPLC of CoA esters (dehydration)", "assay_type": "biochemical, Haloarcula hispanica", "details": "100 mM Tris/HCl pH 7.8, 3 M KCl, 5 mM MgCl2, 37°C, apparent", "source_text": "(§3) UPLC of CoA esters (dehydration) on mesaconyl-CoA hydratase (Mch, Hah_1340)"}, "[11]": {"substrate": "CC(C)(COP(=O)(O)OP(=O)(O)OC[C@H]1O[C@@H](n2cnc3c(N)ncnc32)[C@H](O)[C@@H]1OP(=O)(O)O)[C@@H](O)C(=O)NCCC(=O)NCCSC(=O)C[C@H](O)C(=O)O", "experiment": "UPLC of CoA esters (dehydration)", "assay_type": "biochemical, Haloarcula hispanica", "details": "100 mM Tris/HCl pH 7.8, 3 M KCl, 5 mM MgCl2, 37°C, apparent", "source_text": "as §3"}},
  "data": [
    {"protein": "B1", "values": [
      {"measurement": "Km", "setting": "[1]", "value": "1.3 ± 0.2", "unit": "mM"},
      {"measurement": "Vmax", "setting": "[1]", "value": 17, "unit": "µmol/min/mg"},
      {"measurement": "kcat", "setting": "[1]", "value": 12.2, "unit": "s⁻¹"},
      {"measurement": "kcat/Km", "setting": "[1]", "value": 9800, "unit": "M⁻¹ s⁻¹"},
      {"measurement": "Km", "setting": "[2]", "value": "2.8 ± 0.2", "unit": "mM"},
      {"measurement": "Vmax", "setting": "[2]", "value": 69.2, "unit": "µmol/min/mg"},
      {"measurement": "kcat/Km", "setting": "[2]", "value": 17800, "unit": "M⁻¹ s⁻¹"},
      {"measurement": "stoichiometry N", "setting": "[3]", "value": 2},
      {"measurement": "Km", "setting": "[4]", "value": "0.6 ± 0.1", "unit": "mM"},
      {"measurement": "Vmax", "setting": "[4]", "value": 11, "unit": "µmol/min/mg"},
      {"measurement": "kcat/Km", "setting": "[4]", "value": 12400, "unit": "M⁻¹ s⁻¹"},
      {"measurement": "Km", "setting": "[5]", "value": "39.3 ± 4.6", "unit": "mM"},
      {"measurement": "Vmax", "setting": "[5]", "value": 6.2, "unit": "µmol/min/mg"},
      {"measurement": "kcat/Km", "setting": "[5]", "value": 120, "unit": "M⁻¹ s⁻¹"},
      {"measurement": "Km", "setting": "[6]", "value": "40.9 ± 3.9", "unit": "mM"},
      {"measurement": "Vmax", "setting": "[6]", "value": 18.1, "unit": "µmol/min/mg"},
      {"measurement": "kcat/Km", "setting": "[6]", "value": 320, "unit": "M⁻¹ s⁻¹"}
    ]},
    {"protein": "B2", "values": [
      {"measurement": "Km", "setting": "[7]", "value": "0.35 ± 0.05", "unit": "mM"},
      {"measurement": "Vmax", "setting": "[7]", "value": 266, "unit": "µmol/min/mg"},
      {"measurement": "kcat/Km", "setting": "[7]", "value": 254000, "unit": "M⁻¹ s⁻¹"},
      {"measurement": "stoichiometry N", "setting": "[3]", "value": 2},
      {"measurement": "Km", "setting": "[8]", "value": "1.0 ± 0.1", "unit": "mM"},
      {"measurement": "Vmax", "setting": "[8]", "value": 20.7, "unit": "µmol/min/mg"},
      {"measurement": "kcat/Km", "setting": "[8]", "value": 6900, "unit": "M⁻¹ s⁻¹"},
      {"measurement": "Km", "setting": "[9]", "value": "0.18 ± 0.01", "unit": "mM"},
      {"measurement": "Vmax", "setting": "[9]", "value": 1.12, "unit": "µmol/min/mg"},
      {"measurement": "kcat/Km", "setting": "[9]", "value": 2000, "unit": "M⁻¹ s⁻¹"},
      {"measurement": "Km", "setting": "[10]", "value": "2.6 ± 0.3", "unit": "mM"},
      {"measurement": "Vmax", "setting": "[10]", "value": 1.6, "unit": "µmol/min/mg"},
      {"measurement": "kcat/Km", "setting": "[10]", "value": 200, "unit": "M⁻¹ s⁻¹"},
      {"measurement": "Km", "setting": "[11]", "value": "0.32 ± 0.05", "unit": "mM"},
      {"measurement": "Vmax", "setting": "[11]", "value": 3.6, "unit": "µmol/min/mg"},
      {"measurement": "kcat/Km", "setting": "[11]", "value": 3800, "unit": "M⁻¹ s⁻¹"}
    ]}
  ]
}
